Laboratory results: patent US20090093002A1

Target: biotinylated complete Aβ1-42 peptide (Bachem) (UniProt P05067)
Assay: ELISA on biotinylated complete Aβ1-42 peptide

biotinylated complete Aβ1-42 peptide (Bachem), sequence (P05067 672-713 limits assumed): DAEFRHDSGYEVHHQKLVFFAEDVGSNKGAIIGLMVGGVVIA

- O.D: 0.196 O.D
Substance: Control IgG (antibody)
